Assay results taken from paper PMC8605356.

How the values were obtained:
[1] = biological target: α-D-fructofuranosidase and difructose dianhydride I synthase/hydrolase from Bifidobacterium dentium (Bifidobacterium dentium JCM 1195); assay: crystal structure; sitting drop vapor diffusion at 20 °C, 10 mg/ml αFFase1 in 5 mM Na acetate pH 6.0, reservoir 20% PEG 3350 and 0.2 M disodium tartrate; ligand-free and cocrystals with D-fructose or D-arabinose; hexamer in the asymmetric unit
[2] = biological target: α-D-fructofuranosidase and difructose dianhydride I synthase/hydrolase from Bifidobacterium dentium (Bifidobacterium dentium JCM 1195); assay: SEC; size-exclusion chromatography of the purified protein; conditions of this analysis not told (the purification used Hiload 16/60 Superdex 200 pg in 25 mM Tris HCl pH 7.0, 300 mM NaCl)

α-D-fructofuranosidase and difructose dianhydride I synthase/hydrolase from Bifidobacterium dentium (enzyme)
stoichiometry N [1]: 6
stoichiometry N [2]: 6
